Assay results published in IntAct's records for PubMed 17959776.

B1: Nitrogen regulatory protein P-II (Synechococcus elongatus (strain PCC 7942)), P0A3F4 (parent)
chain: MKKIEAIIRPFKLDEVKIALVNAGIVGMTVSEVRGFGRQKGQTERYRGSEYTVEFLQKLKLEIVVEDAQVDTVIDKIVAAARTGEIGDGKIFVSPVDQTIRIRTGEKNADAI
partner: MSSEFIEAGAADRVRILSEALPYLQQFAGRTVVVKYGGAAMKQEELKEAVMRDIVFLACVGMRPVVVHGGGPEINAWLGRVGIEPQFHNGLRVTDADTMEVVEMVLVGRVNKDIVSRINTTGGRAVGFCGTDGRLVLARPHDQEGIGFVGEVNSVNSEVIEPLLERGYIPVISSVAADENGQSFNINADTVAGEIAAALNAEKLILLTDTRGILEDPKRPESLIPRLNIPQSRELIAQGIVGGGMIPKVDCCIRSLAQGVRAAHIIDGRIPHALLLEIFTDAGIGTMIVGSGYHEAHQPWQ
B2: Acetylglutamate kinase (Synechococcus elongatus (strain PCC 7942)), Q6V1L5 (parent)
chain: B1 partner

Variants of: B1
Details: with argb_syne7 argB, Q6V1L5
F11A was tested, and the “effect of a mutation on the interaction” value was “disrupting interaction”.
In the case of R45A, the “effect of a mutation on the interaction” value is reported as “disrupting interaction”.
In the case of Y46A, the “effect of a mutation on the interaction” value is reported as “disrupting interaction”.
R47A was tested, and the “effect of a mutation on the interaction” value was “disrupting interaction”.
For S49A, the “effect of a mutation on the interaction” value was “disrupting interaction strength”.
With S49D the “effect of a mutation on the interaction” value was “disrupting interaction strength”.
In the case of S49E, the “effect of a mutation on the interaction” value is reported as “disrupting interaction strength”.
With E85A the “effect of a mutation on the interaction” value was “disrupting interaction”.

Variants of: B1
Details: with argb_syne7 argB
With S49D the “effect of a mutation on the interaction” value was “disrupting interaction”.

Variants of: B2
Details: with glnb_syne7 glnB, P0A3F4
R139A was tested, and the “effect of a mutation on the interaction” value was “disrupting interaction”.
With I229A the “effect of a mutation on the interaction” value was “disrupting interaction”.
With R233A the “effect of a mutation on the interaction” value was “disrupting interaction”.
With R254A the “effect of a mutation on the interaction” value was “disrupting interaction”.
With L256A the “effect of a mutation on the interaction” value was “disrupting interaction”.
For Q258A, the “effect of a mutation on the interaction” value was “disrupting interaction”.
